{
  "source": "patent US20220119540A1",
  "about": "(NANJING GENSCRIPT BIOTECH, published 2022)",
  "molecules": {"B1": {"name": "Chimeric antibody, as ranked with the prokaryotically expressed antibody products (back-mutation screening) (Fab, V domains shown)", "VH": "QIQLVQSGPELKKPGETVKISCKASGYTFTDYSMHWVKQAPGKGLKWMGWISTETGEPTYADDFKGRFAFSLETSASTAYLQIKNLKNEDTASYFCARVRPWYLAVWGAGTTVTVSS", "VL": "DIQMTQTTSSLSASLGDRVTISCRASQDISNYLNWYQQKPDGTVKLLIYYTSRLYSGVPSRFSGSGSGADYSLTVSNLEQEDIATYFCQQANTLPLTFGAGTKLELK"}, "B2": {"name": "AH02923 humanized anti-human OX40 monoclonal antibody (recombinant human IgG1/kappa) (antibody, V domains shown)", "VH": "QVQLVQSGAEVKKPGASVKVSCKASGYTFTDYSMHWVRQAPGQGLEWMGWISTETGEPTYADDFKGRFTFTLDTSASTAYLELSSLRSEDTAVYYCARVRPWYLAVWGQGTLVTVSS", "VL": "DIQMTQSPSSLSASVGDRVTITCRASQDISNYLNWYQQKPGKAVKLLIYYTSRLYSGVPSRFSGSGSGTDYTFTISSLQPEDIATYYCQQANTLPLTFGGGTKLEIK"}},
  "key": {"[1]": {"molecular_target": "OX40 on a functional cell line overexpressing OX40 (UniProt P43489)", "experiment": "cell-based or functional assay"}, "[2]": {"molecular_target": "T1, Recombinant human OX40-His protein (human, UniProt P43489 29-214, limits assumed)", "T1 construct": "Recombinant antigen protein; also called recombinant human OX-40 protein; human OX-40 protein; not shown: His tag", "T1 sequence (looked up)": "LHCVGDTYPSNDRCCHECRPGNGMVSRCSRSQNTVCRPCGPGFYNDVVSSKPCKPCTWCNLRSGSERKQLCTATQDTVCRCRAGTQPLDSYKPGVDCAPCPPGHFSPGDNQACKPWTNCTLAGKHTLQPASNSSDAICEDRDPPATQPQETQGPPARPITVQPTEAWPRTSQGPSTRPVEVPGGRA", "experiment": "kinetic ranking (RU, 1:1 binding model), antibody product as ligand, OX40-His as analyte"}, "[3]": {"molecular_target": "T2, Recombinant monkey OX-40 protein (monkey)", "T2 chain": "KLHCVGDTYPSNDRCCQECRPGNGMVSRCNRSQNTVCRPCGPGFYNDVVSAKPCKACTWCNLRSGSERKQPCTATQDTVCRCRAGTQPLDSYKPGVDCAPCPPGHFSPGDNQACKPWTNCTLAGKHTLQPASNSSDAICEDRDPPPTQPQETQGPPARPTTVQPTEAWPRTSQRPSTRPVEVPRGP", "experiment": "ELISA, plate coated with recombinant monkey OX-40 protein, antibody titrated"}, "[4]": {"molecular_target": "T1, Recombinant human OX40-His protein", "experiment": "ELISA, plate coated with recombinant human OX-40 protein, antibody titrated", "description": "Recombinant human OX-40 protein and recombinant monkey OX-40 protein were respectively used to detect the cross-recognition ability of humanized monoclonal antibodies for human/monkey OX-40 protein.\nThe ELISA plate (Nunc) was coated with 100 μl/well of […] recombinant OX40-His protein in PBS at 4° C. overnight. The plate was washed with PBS-T (0.05% Tween) and blocked with 200 μl/well of PBST containing 1% BSA at 37° C. for 0.5 hr. Then the blocking buffer was discarded, 100 μl of 1000 ng/ml purified antibody was added to the first well, 3-fold serial dilutions were made, and a total of 11 test concentration gradients were given. Then the system was incubated for 1 hr at room temperature. The plate was washed three times with PBST and incubated with 100 μl/well of horseradish peroxidase-conjugated goat anti-human Fab fragment-IgG (Fab-specific) (GenScript) at 37° C. for 0.5 hr. The plate was washed 5 times with PBST, and then a TMB developing solution (GenScript) was added and incubated at room temperature for 15 min in the dark. The reaction was terminated by adding 50 μl of 1 M HCl stop solution (Sigma). The plate was read at 450 nm on a microplate reader."}, "[5]": {"molecular_target": "T1, Recombinant human OX40-His protein", "experiment": "SPR (Biacore 8K), OX40-HIS coupled to chip, antibody as analyte, 1:1 binding model", "description": "The chip surface was equilibrated with HBS-EP buffer at a flow rate of 10 μl/min for 5 min, and then a 1:1 mixture of “NHS+EDC” was injected at a flow rate of 10 μl/min for 100 sec to activate the chip. The antigen protein (OX40-HIS) diluted in 10 mM sodium acetate buffer was injected for about 180 sec at a flow rate of 10 μl/min for coupling, and finally ethanolamine was injected for 200 sec at a flow rate of 10 μl/min to block the surface.\nThree pre-cycles were performed with the HBS-EP buffer as a sample to balance the chip to stabilize the baseline. A low concentration of antibody was injected at a flow rate of 30 μl/min for 200 sec, to allow the antigen to bind to the antibody, and then the buffer was injected at a flow rate of 30 μl/min for 400 sec for dissociation. 10 mM Gly-HCl pH2.0 was injected three times each for 30 sec at a flow rate of 30 μl/min for regeneration, to complete one cycle.\nThe antibody concentration was changed to carry out the cycle for measurement at a next gradient concentration until all gradient concentrations (2.5 nM, 5 nM, 10 nM, 20 nM, 40 nM, and […]) and the replicate (such as 20 nM) were tested. The experimental data was double subtracted (minus the background values of the control channel and zero concentration), and fitted to the “1:1 binding” model in the Biacore 8K evaluation software. Biacore 8K was used to determine the affinity of the antibody to the OX40-HIS recombinant protein."}, "[6]": {"molecular_target": "T3, OX40 on a functional cell line overexpressing OX40 (UniProt P43489 29-277, limits assumed)", "T3 sequence (looked up)": "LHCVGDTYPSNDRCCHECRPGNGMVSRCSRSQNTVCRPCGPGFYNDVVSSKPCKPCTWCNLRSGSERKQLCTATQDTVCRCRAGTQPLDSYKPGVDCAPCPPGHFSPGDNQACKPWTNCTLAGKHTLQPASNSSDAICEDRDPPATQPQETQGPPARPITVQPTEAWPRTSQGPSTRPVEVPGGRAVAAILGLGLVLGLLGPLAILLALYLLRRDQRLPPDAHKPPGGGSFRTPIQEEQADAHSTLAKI", "experiment": "cell-based or functional assay"}},
  "data": [
    {"molecule": "OX40 ligand (from UniProt P23510 51-183)", "values": [
      {"measurement": "IL-8 secretion by OX40 overexpressing functional cell line, EC50", "setting": "[1]", "value": 2.54, "unit": "nM"},
      {"measurement": "IL-8 secretion by OX40 overexpressing functional cell line, best-fit value Bottom", "setting": "[1]", "value": 4130},
      {"measurement": "IL-8 secretion by OX40 overexpressing functional cell line, best-fit value LogEC50", "setting": "[1]", "value": 0.404},
      {"measurement": "IL-8 secretion by OX40 overexpressing functional cell line, best-fit value Top", "setting": "[1]", "value": 19900}
    ]},
    {"molecule": "B1", "values": [
      {"measurement": "Kd", "setting": "[2]", "value": 11.2, "unit": "nM"},
      {"measurement": "koff", "setting": "[2]", "value": 0.00487, "unit": "s⁻¹"},
      {"measurement": "kon", "setting": "[2]", "value": 434000, "unit": "M⁻¹ s⁻¹"}
    ]},
    {"molecule": "B2", "values": [
      {"measurement": "EC50", "setting": "[3]", "value": 0.0303, "unit": "µg/mL"},
      {"measurement": "EC50", "setting": "[4]", "value": 0.0107, "unit": "µg/mL"},
      {"measurement": "Kd", "setting": "[5]", "value": 2.15, "unit": "nM"},
      {"measurement": "koff", "setting": "[5]", "value": 0.000616, "unit": "s⁻¹"},
      {"measurement": "kon", "setting": "[5]", "value": 287000, "unit": "M⁻¹ s⁻¹"},
      {"measurement": "IL-8 secretion by OX40 overexpressing functional cell line, EC50", "setting": "[6]", "value": 1.55, "unit": "nM"},
      {"measurement": "IL-8 secretion by OX40 overexpressing functional cell line, best-fit value Bottom", "setting": "[6]", "value": 3350},
      {"measurement": "IL-8 secretion by OX40 overexpressing functional cell line, best-fit value LogEC50", "setting": "[6]", "value": 0.191},
      {"measurement": "IL-8 secretion by OX40 overexpressing functional cell line, best-fit value Top", "setting": "[6]", "value": 21000}
    ]}
  ]
}
